This test deals with human CD3 antigen (human) (UniProt P07766). Description: competitive flow cytometry on HPBALL cells; competitor: biotinylated monovalent humanised CD3 Mab.
Sequence of UniProt P07766 (P07766 23-207): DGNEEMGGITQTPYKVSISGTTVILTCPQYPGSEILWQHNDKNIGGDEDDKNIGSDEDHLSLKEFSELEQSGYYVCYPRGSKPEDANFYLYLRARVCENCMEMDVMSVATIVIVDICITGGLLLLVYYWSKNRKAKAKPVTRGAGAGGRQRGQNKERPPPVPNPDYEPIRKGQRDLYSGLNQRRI

B1: humanised bivalent CD3 Mab (antibody, V domains shown)
VH: EVQLLESGGGLVQPGGSLRLSCAASGFTFSSFPMAWVRQAPGKGLEWVSTISTSGGRTYYRDSVKGRFTISRDNSKNTLYLQMNSLRAEDTAVYYCAKFRQYSGGFDYWGQGTLVTVSS
VL: DFMLTQPHSVSESPGKTVIISCTLSSGNIENNYVHWYQQRPGRAPTTVIFDDDKRPDGVPDRFSGSIDRSSNSASLTISGLQTEDEADYYCHSYVSSFNVFGGGTKLTVL
Consider B1, for which the fold concentration for 50% competition, against rat YTH12.5 Mab worked out at 1.3 fold.

The values are drawn from patent US5968509.
